The record followed here is patent US20110064819A1, “ENCAPSULATION OF BIOLOGICALLY ACTIVE AGENTS” (priority 2008, published 2011).

A short description of this data set: HIP extraction of dalargin into the organic phase (LC-MS and Edman sequencing). In kind it is physicochemical. The conditions noted are these: docusate sodium in dichloromethane, peptide solution pH 3.05. Here is the method: A solution of the hexapeptide dalargin was prepared by dissolving 30-60 mg of the peptide into 3 ml of CaCl2 (18.3 mM) and lowering the pH to 3.05 by addition of concentrated HCl (2M). The resulting solution (500 μl, 10-20 mg/ml, and total amount of peptide 5-10 mg) was added to a solution of the HIP agent docusate sodium in dichloromethane (1 ml, 3.058-6.116% w/v) in a 2 ml eppendorf tube. The volume of HIP solution used was twice that of the peptide solution (1 ml HIP solution for 500 μl peptide solution). The molar ratio of HIP:peptide was 10:1 with 5 mg peptide and 5:1 with 10 mg peptide. The organic and aqueous phases were mixed by vortexing at maximum speed for 1 minute. The resulting suspension was then centrifuged to separate the two phases at 20,817 rcf for 50 minutes. The organic layer (containing solubilised peptide) was collected and used to prepare nanoparticles. In order to confirm that the process had been successful at solubilising the peptide into the organic phase, the amount of peptide remaining in the aqueous phase was determined.

In the case of “dalargin (YAGFLR; Humanised sequence of mus musculus and homo sapiens) [hexapeptide YAGFLR]”, the “Peptide extracted into the organic phase” value is given as “at least 99%”.
